Earlier results in publication PMC10970614.

Tests used:
[1] = biological target: glycophorin (Homo sapiens) (UniProt P02724)
[2] = biological target: integrin alpha L cytoplasmic domain (Homo sapiens) (UniProt P20701); experiment: SPR
[3] = biological target: integrin beta 3 cytoplasmic domain (Homo sapiens) (UniProt P05106); experiment: SPR
[4] = biological target: integrin beta 2 cytoplasmic domain (Homo sapiens) (UniProt P05107); experiment: SPR
[5] = biological target: integrin alpha M cytoplasmic domain (Homo sapiens) (UniProt P11215); experiment: SPR
Chain of integrin alpha M cytoplasmic domain (Homo sapiens) (P11215 1129-1152): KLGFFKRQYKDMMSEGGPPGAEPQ

[6] = biological target: integrin alpha X cytoplasmic domain (Homo sapiens) (UniProt P20702); experiment: SPR
Chain of integrin alpha X cytoplasmic domain (Homo sapiens) (P20702 1129-1163): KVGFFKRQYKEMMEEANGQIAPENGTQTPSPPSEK

Chain of LtxA (P16462 whole entry): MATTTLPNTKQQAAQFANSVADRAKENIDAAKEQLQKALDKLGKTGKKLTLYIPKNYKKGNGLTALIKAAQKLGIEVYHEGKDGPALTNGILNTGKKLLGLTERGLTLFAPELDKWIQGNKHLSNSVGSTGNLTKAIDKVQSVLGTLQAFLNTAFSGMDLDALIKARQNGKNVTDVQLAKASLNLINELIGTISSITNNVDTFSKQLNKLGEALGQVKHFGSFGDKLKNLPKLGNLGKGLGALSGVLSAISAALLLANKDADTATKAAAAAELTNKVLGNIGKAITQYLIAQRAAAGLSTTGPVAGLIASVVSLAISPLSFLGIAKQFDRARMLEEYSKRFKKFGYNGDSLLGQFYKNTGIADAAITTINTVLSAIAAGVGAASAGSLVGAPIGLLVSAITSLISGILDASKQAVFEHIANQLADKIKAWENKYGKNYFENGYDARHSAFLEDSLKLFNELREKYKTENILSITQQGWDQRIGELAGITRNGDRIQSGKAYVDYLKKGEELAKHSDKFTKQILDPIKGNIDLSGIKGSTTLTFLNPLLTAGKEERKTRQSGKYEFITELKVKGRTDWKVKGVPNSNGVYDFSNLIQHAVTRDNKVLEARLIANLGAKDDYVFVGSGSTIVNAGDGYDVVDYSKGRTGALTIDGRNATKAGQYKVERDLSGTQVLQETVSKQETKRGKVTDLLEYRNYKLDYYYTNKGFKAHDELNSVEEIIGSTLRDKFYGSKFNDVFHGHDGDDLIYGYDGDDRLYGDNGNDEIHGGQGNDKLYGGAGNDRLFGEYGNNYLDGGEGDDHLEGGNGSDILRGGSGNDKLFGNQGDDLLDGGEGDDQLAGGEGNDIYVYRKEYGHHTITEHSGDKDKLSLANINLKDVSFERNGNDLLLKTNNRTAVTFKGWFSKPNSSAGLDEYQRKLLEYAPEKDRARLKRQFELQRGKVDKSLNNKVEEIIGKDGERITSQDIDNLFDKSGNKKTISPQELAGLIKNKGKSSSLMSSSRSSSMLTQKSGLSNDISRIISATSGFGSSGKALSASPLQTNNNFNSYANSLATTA
Chain of HlyA (P08715 whole entry): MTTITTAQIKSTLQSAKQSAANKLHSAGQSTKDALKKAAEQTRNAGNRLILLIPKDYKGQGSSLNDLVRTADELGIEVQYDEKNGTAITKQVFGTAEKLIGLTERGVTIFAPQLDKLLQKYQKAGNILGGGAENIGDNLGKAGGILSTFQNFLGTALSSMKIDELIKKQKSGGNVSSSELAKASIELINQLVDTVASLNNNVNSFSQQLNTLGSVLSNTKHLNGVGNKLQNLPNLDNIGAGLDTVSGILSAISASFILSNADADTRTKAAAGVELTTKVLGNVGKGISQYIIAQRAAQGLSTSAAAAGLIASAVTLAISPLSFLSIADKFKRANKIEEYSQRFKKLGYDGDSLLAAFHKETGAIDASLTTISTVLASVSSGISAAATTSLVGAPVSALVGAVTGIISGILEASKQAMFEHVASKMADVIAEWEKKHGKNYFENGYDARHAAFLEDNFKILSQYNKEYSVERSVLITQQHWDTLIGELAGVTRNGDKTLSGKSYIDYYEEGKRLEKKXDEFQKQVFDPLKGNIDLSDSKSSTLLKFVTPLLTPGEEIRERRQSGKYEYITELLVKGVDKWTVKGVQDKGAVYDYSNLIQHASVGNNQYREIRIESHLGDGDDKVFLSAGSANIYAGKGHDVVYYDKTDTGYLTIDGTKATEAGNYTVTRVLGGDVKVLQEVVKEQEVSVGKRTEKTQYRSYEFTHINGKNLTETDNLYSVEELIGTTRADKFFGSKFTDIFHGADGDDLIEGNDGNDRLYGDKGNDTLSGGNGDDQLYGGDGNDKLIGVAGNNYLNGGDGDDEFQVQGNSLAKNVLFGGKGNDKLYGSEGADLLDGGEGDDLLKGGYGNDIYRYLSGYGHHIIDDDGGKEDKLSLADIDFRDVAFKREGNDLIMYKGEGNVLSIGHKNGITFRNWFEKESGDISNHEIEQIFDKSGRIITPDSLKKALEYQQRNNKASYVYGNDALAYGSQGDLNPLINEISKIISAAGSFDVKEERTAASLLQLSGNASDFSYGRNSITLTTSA
Chain of integrin beta 3 cytoplasmic domain (Homo sapiens) (P05106 742-788): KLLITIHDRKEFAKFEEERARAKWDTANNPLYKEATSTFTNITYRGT
Chain of integrin beta 2 cytoplasmic domain (Homo sapiens) (P05107 724-769): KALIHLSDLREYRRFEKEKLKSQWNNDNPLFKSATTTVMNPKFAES
Chain of integrin alpha L cytoplasmic domain (Homo sapiens) (P20701 1112-1170): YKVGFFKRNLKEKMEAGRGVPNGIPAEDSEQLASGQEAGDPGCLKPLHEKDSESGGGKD

| Substance | Kd [1] [nM] | Kd [2] [nM] | Kd [3] [nM] | Kd [4] [nM] | Kd [5] [nM] | Kd [6] [nM] |
| --- | --- | --- | --- | --- | --- | --- |
| HlyA (from UniProt P08715) | 610 |  |  |  |  |  |
| LtxA (from UniProt P16462) |  | 15 | 230 | 4.2 | 400 | 180 |
